Assay results taken from PMC7196598, “Architecture of the herpesvirus genome-packaging complex and implications for DNA translocation” (Protein & Cell, 2020).
Several values for one entry are separate records, joined by “and”; a condition that tells them apart may be missing. Equal entries are not always repeated.

What was measured:
[1] = biological target: the molecule itself; experiment: cryo-EM structure; purified terminase complex (1 mg/mL), apo or with ADP•BeF3 and pac2 DNA (58 bp; DNA not visible); hexameric and dodecameric assemblies, block-based reconstruction of one terminase complex
[2] = biological target: the molecule itself; experiment: AUC; sedimentation velocity, Beckman XL-I, 20 °C, 20 mmol/L Hepes, 300 mmol/L NaCl, pH 7.5, A280 ~0.8, 20,000 rpm; shown with SDS-PAGE and electron microscopy (Fig. 1B)

B1: HSV1-pUL15 (residues 1–737), ATPase/terminase subunit of the herpesvirus terminase complex (natural protein)
chain: MFGQQLASDVQQYLERLEKQRQLKVGADEASAGLTMGGDALRVPFLDFATATPKRHQTVVPGVGTLHDCCEHSPLFSAVARRLLFNSLVPAQLKGRDFGGDHTAKLEFLAPELVRAVARLRFKECAPADVVPQRNAYYSVLNTFQALHRSEAFRQLVHFVRDFAQLLKTSFRASSLTETTGPPKKRAKVDVATHGRTYGTLELFQKMILMHATYFLAAVLLGDHAEQVNTFLRLVFEIPLFSDAAVRHFRQRATVFLVPRRHGKTWFLVPLIALSLASFRGIKIGYTAHIRKATEPVFEEIDACLRGWFGSARVDHVKGETISFSFPDGSRSTIVFASSHNTNGIRGQDFNLLFVDEANFIRPDAVQTIMGFLNQANCKIIFVSSTNTGKASTSFLYNLRGAADELLNVVTYICDDHMPRVVTHTNATACSCYILNKPVFITMDGAVRRTADLFLADSFMQEIIGGQARETGDDRPVLTKSAGERFLLYRPSTTTNSGLMAPDLYVYVDPAFTANTRASGTGVAVVGRYRDDYIIFALEHFFLRALTGSAPADIARCVVHSLTQVLALHPGAFRGVRVAVEGNSSQDSAVAIATHVHTEMHRLLASEGADAGSGPELLFYHCEPPGSAVLYPFFLLNKQKTPAFEHFIKKFNSGGVMASQEIVSATVRLQTDPVEYLLEQLNNLTETVSPNTDVRTYSGKRNGASDDLMVAVIMAIYLAAQAGPPHTFAPITRVS
notes: pUL15 of herpes simplex virus 1 (HSV1), tripartite terminase subunit 3; construct printed as residues 1–737, while the results say pUL15 is 735 residues in length (domains end at 735); Cloned in pFastBac-HTA; No tag cleavage is described; also called ATPase/terminase pUL15; source: Sf9, co-infected with two recombinant baculoviruses (co-expressed with pUL28 and pUL33), purified (Ni-NTA, Superose …)
- binding result [1]: binds

B2: herpesvirus terminase complex (heterotrimer of pUL15, pUL28 and pUL33), wild type (complex)
chain 1: MFGQQLASDVQQYLERLEKQRQLKVGADEASAGLTMGGDALRVPFLDFATATPKRHQTVVPGVGTLHDCCEHSPLFSAVARRLLFNSLVPAQLKGRDFGGDHTAKLEFLAPELVRAVARLRFKECAPADVVPQRNAYYSVLNTFQALHRSEAFRQLVHFVRDFAQLLKTSFRASSLTETTGPPKKRAKVDVATHGRTYGTLELFQKMILMHATYFLAAVLLGDHAEQVNTFLRLVFEIPLFSDAAVRHFRQRATVFLVPRRHGKTWFLVPLIALSLASFRGIKIGYTAHIRKATEPVFEEIDACLRGWFGSARVDHVKGETISFSFPDGSRSTIVFASSHNTNGIRGQDFNLLFVDEANFIRPDAVQTIMGFLNQANCKIIFVSSTNTGKASTSFLYNLRGAADELLNVVTYICDDHMPRVVTHTNATACSCYILNKPVFITMDGAVRRTADLFLADSFMQEIIGGQARETGDDRPVLTKSAGERFLLYRPSTTTNSGLMAPDLYVYVDPAFTANTRASGTGVAVVGRYRDDYIIFALEHFFLRALTGSAPADIARCVVHSLTQVLALHPGAFRGVRVAVEGNSSQDSAVAIATHVHTEMHRLLASEGADAGSGPELLFYHCEPPGSAVLYPFFLLNKQKTPAFEHFIKKFNSGGVMASQEIVSATVRLQTDPVEYLLEQLNNLTETVSPNTDVRTYSGKRNGASDDLMVAVIMAIYLAAQAGPPHTFAPITRVS
chain 2: MAAPVSEPTVARQKLLALLGQVQTYVFQIELLRRCDPHIGRGKLPQLKLNALQVRALRRRLRPGLEAQAGAFLTPLSVTLELLLEYAWREGERLLGSLETFATAGDVAAFFTETMGLARPCPYHQRVRLDTYGGTVHMELCFLHDVENFLKQLNYCHLITPSRGATAALERVREFMVGAVGSGLIVPPELSDPSHPCAVCFEELCVTANQGATIARRLADRICNHVTQQAQVRLDANELRRYLPHAAGLSDADRARALSVLDHALARTAGGDGQPHPSPENDSVRKEADALLEAHDVFQATTPGLYAISELRFWLASGDRAGQTTMDAFASNLTALARRELQQETAAVAVELALFGRRAEHFDRAFGSHLAALDMVDALIIGGQATSPDDQIEALIRACYDHHLTTPLLRRLVSPEQCDEEALRRVLARMGAGGAADAPKGGAGPDDDGDRVAVEEGARGLGAPGGGGEDEDRRRGPGGQGPETWGDIATQAAADVRERRRLYADRLTKRSLASLGRCVREQRGELEKMLRVSVHGEVLPATFAAVANGFAARARFCALTAGAGTVIDNRSAPGVFDAHRFMRASLLRHQVDPALLPSITHRFFELVNGPLFDHSTHSFAQPPNTALYYSVENVGLLPHLKEELARFIMGAGGSGADWAVSEFQRFYCFDGISGITPTQRAAWRYIRELIIATTLFASVYRCGELELRRPDCSRPTSEGRYRYPPGVYLTYDSDCPLVAIVESAPDGCIGPRSVVVYDRDVFSILYSVLQHLAPRLPDGGHDGPP
chain 3: MAGREGRTRQRTLRDTIPDCALRSQTLESLDARYVSRDGAHDAAVWFEDMTPAELEVVFPTTDAKLNYLSRTQRLASLLTYAGPIKAPDDAAAPQTPDTACVHGELLAAKRERFAAVINRFLDLHQILRG
notes: pUL15 of herpes simplex virus 1 (HSV1); construct printed as residues 1–737, while the results say pUL15 is 735 residues in length; pUL28 of herpes simplex virus 1 (HSV1); construct printed as residues 1–787; pUL33 of herpes simplex virus 1 (HSV1); construct printed as residues 1–132; One heterotrimer is one subunit of the hexameric ring; the hexamer and dodecamer are written as self-association …
- stoichiometry N [2]: 6 and 12
